PMC9365158 (2022)

Tests used:
[1] = target: RBD-mFc (SARS-CoV-2, UniProt P0DTC2); assay: BLI
[2] = target: S1-hFc (SARS-CoV-2); assay: BLI

B1: RBD-1-2G(NCATS-BL8125) (VHH)
VHH: EVQLVESGGGLVQPGGSLRLSCAASGFSSIVYMGWFRQAPGKGRELVAAIDASGSTTNYPDSVEGRFTISRDNAKRMVYLQMNSLRAEDTAVYYCAIAYFTSPEYVVSQGWGQGTQVTVSS
In the case of B1, the koff [1] is reported as 0.00024 s⁻¹ and the koff [2] is reported as 0.0002 s⁻¹.
